For orientation: pEC50 means the EC50 on a negative log10 scale, so that one unit is a factor of ten.

EC50 data for one substance are collected here from paper PMC10996255.

pEC50: −log10 of the molar value.

The target in this experiment is Recombinant human HER2 (human) (UniProt P04626). The experiment is described as follows: ELISA; recombinant HER2 (50 ng/well) coated in PBS pH 7.4; scFv or conjugate 250 to 0.005 nM, 4-fold dilutions in 5% skim milk in PBST, room temperature; detected by rabbit anti-His-tag antibody and HRP-linked anti-rabbit IgG. In general terms: An ELISA detects its analyte on a solid surface through an enzyme-linked reagent.

For the substance “4D5scFv-G178-HSA (from UniProt P02768 25-609)”, the pEC50 was 8.83.
